B1: 840 (protein, listed as Hungatella hathewayi)
chain: MNKKIKEILNSLTLEEKASLCSGVGLWQTRPLEDKGIPEIWMADGSNGVRIMKPVNQERKQDTSDFLKVTDLTQNSPTITNQYEAVCYPSGASLASTWDTELIEEMGEALGDECRYFKVNLLLAPGINIKRSPLGGRGYEYYSEDPYLTGKVAESFIKGVQKTGTGTSIKHFAANNAETLRINMSSDVDERALREIYLAPFEIGVKNAKPWTVMSSYNKVNGVQMAENRELLTDILRDEWGFNGVVVSDWGGVKDRIKALEAGNDLDMPENQRSNQSVVDAVRRGILSEAVLDQSVERILELVFKAKEQERFTDDMDFESHRNLSRKVAEESVVLLKNEKGLLPITKEKYKKVAVIGAFAREPRYQGGGCTLVNPIRISRPYEEMEKLAGKNIELTYAKGYELKDETSDELIHEAEEAAREADIAVIFGGLWVAYDREGFDRKHLEIDSSHIRLIEAVSRVQKRVVVVLSNGDAVVMSPWLDHVGAVVEQFLVGETVGEALARVLFGEVNPSGKLPVTFPKRLEDTSAYPYFPGECSHHVYGEGIFVGYRYFDKKKIEPLFPFGYGISYTTFQYSAIRADRSQMKDTDTVTVSVDVTNTGCVKGKEIVQIYVSDEKSRLKRPEKELKAFGKVELEPGETKTLTFTLGYRDFAYYDPEASDWVVEEGIFHIHAAANAGDIRQSIPVEVTEAKKKFRRLYLDSQHTAVFEHPMAKKMYLDFLVETGVIAADRVEAMAPLLKGNYMGIYNVVTSLLGGNVTKEEMQAVLDRINEVCKDNRPAE
B2: 819 (protein)
chain: MTTVHPDDYADRASELVAAMTLDEKASLTSGADFWNLKTVERLGLGAVMVTDGPHGLRKATNDAEIGIGQAVPATCFPTAAALGSTWDDELLEQVGAALGEEARAAGVAVVLGPGVNMKRSPLCGRNFEYFSEDPLVAGRAGAAMVRGVQSQGVGTSVKHFAANSQETDRMRIDARIGERALREIYLPAFERIVTQTRPWTVMCAYNKVNGTYASQHPWLLTTVLREDWGFGGLVVSDWGAVDQRVPGLAAGLDLEMPASGGVTDEQIARAVRTGELDEAVLDRAVQRIVALILAAQAVEPGTGFDTDAHHELARKAAAAGAVLLRNEPVDGSPVLPLDARDITGQAPLVVIGEFARTPRYQGAGSSQINPTRLDSALDALREQLGGAVRFEPGYRLAEATGMPGQELTDDELADRAVEAARGATVVLFAGLPAAVESEGYDRDDIELPNAQTTLIERVSAVAARTTVVLSNGSVVSVASWREKVDALLECWLGGQGGGSATADVLLGRSCPGGHLAESIPLALSDVPAQLNFPGSHSRVDHGEGVFVGYRGLDTMGREVAYPFGFGLTYTTFELTGVQATPVVTVADGTGLDETVAVVRGTLTNTGQRTGAQVVQLYLGRHEASRVARAPRELRGYEKITLAPGQSAPFEFALSRRDLSYWDEGTGCWQVEPGAYRAWVGFSSRDAAAVLPLQVTAPEPASPLGKDSTYAEWMAHPVGGPLLRTDARAFVDDMASSGAYELFAAMPLERLVRLPGSLLAPEDYLTLLDRAQAGQD
modifications: Propionibacterium australiense
B3: 854 (protein, listed as Corynespora cassiicola)
chain: MAQESGTVHDDESLQALVGQMTLEEKIKMLSAKNVWETPEIDRLGIPSLKVTDGPNGARGGSFFDGTTAACFPSCVSLAATFNRSLSRQVGKALEQEAITKGAYVLLGPTVCCHRSPLGGRNFEAFSEDPYLSGALASEYVKGLQEERVAATVKHFLANEQDTRRFSVNEKISERALREIYLRPFEMVAKEADPWCFMSSYPKINGAHVDAQSKFLVDILRKEWGYKGLIMSDWGATSTPESVRYGLDLETPGPPRWRTTDAVTKCLADGHIEESDIDARVLATLRLLKKVGKFDDRKTTPPEQAIDRPEHRALIRKAGGEGIVLLKNNGNLLPIDTRKTKKIALLGPLAKYAAAHGGGSASLNCHYKISPYDAFVARLGGDVEITHSKGAHIFRVYPDLEASCTNARGNSGFLAEYFMSSSTTEKPFWTEEFPRGSVTTLMNTKVIGCKTLKFTTTYQPPVSGSHYLSFSGLGPSQLFINDMLVAEQKEPTKDAMGFLLGVQEEVRIQYPFSSTQSYAISMVTHPSPFSNAELYLMENQCAIHIGFIAQEEIEHDVLSEAVDLASSADLAIVFVGNTIQWETEGQDLETMTLPADGSQDNLISQVVAANPNTIVVNTTGVPVELPWVDSVPALLQAWYAGQECGNAILDVLLGEVSPSGKLPISWPKKYEHTGCYGHFGLDSFESREVEYVEGVYVGYRWFDQWWGQDKEVRFPFGFGLSYTEFDISDARISGAISGDESSQVKVSANIRNIGDRFGAETVQIYVQPPALADLGRPLKDLVGFVKVELKPGETRDITVCFQKDNVSFWNEKANQWRVCRGTYNVLIATSSDPKDAKQALRFEVEEDLDFDP
B4: 805 (protein)
chain: MLDIEKLIDEMTLEEKAGLCSGDDMWHTKAVERLGIPRIKMSDGPHGMRTFDDNGKVIPAVCFPTGSALAASFDTELVERVGAAIGEAAKTNGVHTVLGPAVNMKRSPLCGRNFEYLSEDPYLAGKLGSAMVRGIQSKGVGACPKHFAVNNQETRRMSVSADLSERTLREVYLPAFETIVKESSPHTMMCAYNRINGTYASENEHLLDEILRKEWGYQGIVMTDWSAMNRRPRALQAGLELEMPSSAGVNDEKIVEAVKAGDLSIEVLDEAVRRLLTWINAELQGRTESVCDLGVQRELAREAAGKSAVLLKNDDVLPLRKGDKIAFIGGFADKPRFEGGGSSHVSVEHMVNAIDAAKDIPNITYTEGFNTDDALSDYELVAEAVRIASEADVAVIFAGLPAAFESEGHDRTTLEIPESQNKLIAAISAVQPKTVVVFHGGSPVYMPWRKDVAAILYMYLGGQEVGSASVDLLFGDRNPSGKLAETFPLKLEDTPCYMNFPGDGNNAEYSEGIYIGYRWYDKRKIAVEYPFGFGMSYSDFIYRQIRSANSRITDTDTLKIYVDVQNRGEYAGEEIVQLYVQPSKARQGVRPVKELKGFKKMMIAPGETKTVCFELDKRSFAEYKPEISGWYAATGEYTILAGGSSDNLPLQVKVYVESTDTIPLVYNDYTTIGDLWDSGLDVNEVLDALDAKQTDLSALGLPADKMDRAIHMEEVKRGMPIHAVISMGGRDMNKIYQALLKVDGLEGKENIPL
modifications: uncultured Clostridium sp.
B5: 817 (protein, listed as Pseudonocardia sp.)
chain: MAHVDEELLGTLIATLDLERKVRLLTGADFWSTPAEPAIGLRRMVLSDGPSGVRGESFDEREPSLSLPSSSALGATWDPAAARRYGSALGAEARRQHADAVLGPTINLHRTPYGGRHFEALSEDPLLTAELAAAYVEGLQAHGVAATPKHYVANDAETERFSVDNRVGDRALRELYLAAFEPVVTRAGAWAVMSAYNAVNGTTMSENPLLAEPLTGEWGFDGLVMSDWGGARSTEASARAEQHLVMPGPVSAWGARLVEAVRDGRVGEDVIDGKVRRLLRLAARVGALDGVPPQVTEPPPAEDGAAVARELAAAGSVLVRNTRADGAAELPWDHAVPGSVAVLGHNAALARTQGGGSATVRPAAVVSPLDGLRAALGADRVRYRLGAQVAEGVQPFDPASITNPVTGGSGLRAVFRDVGGAALRTEDRLSSSLIWMGAEIPEGTDHVEIALRWDAPAGAHRLGAAAVGHVVLVAGGTTVLDADGVLTGDEGPGAAIFEAPSVTAGVTTDGPVDLVLRFRPSGQEAGMPLVAVTVGEETVVDDPDAEIAAAAALAAGTDVAVVVVGTNDRIESEGFDRSTLALPGRQDDLVRAVAAANPRTVVVVNSGAPVLLPWRDEVAAILLGWFGGEQFGEAVADVLLGAAEPGGRLPTTWPGTGRERSVLSGVPSDGVLRYDEGVHAGHRNWLRHGETPAYPFGHGLGYTTWTLDGMSVGRWSADGIDVTVTLTNIGDRPGRQVVQAYLSRDRSDVERPARWLAGWAVVDAAPGTTTVTVPVSRRAFRHRTGTGWATEPGTWTLHLGFSVTDTPLAAEVTTT
B6: 876 (protein, listed as Pyrenochaeta sp.)
chain: MQLSEMALTGVEVDATDVEYILKQMSLDEKIQMLAAKNVWETPEIERVGIPSLKVTDGPNGARGGSFFDGTTAACFPASVSLAATFSRELSRQIGTALGQEAITKGAYAVLGPTVCCHRSPLGGRNFEAFSEDPYLSGTLASEYVQGLQQERVAATVKHFLANEQDTRRFSINQTISERALREIYLKPFEMVVKEAKPWCFMSSYPKINGKHVDAQSLFLEDILRKEWSYDGLVMSDWGATSTVESVSYGLDLEMPGPPRFRTPEAVHQALLKGTVSESDIDARVLTTLKLLERVGKFADRRDTPKETAVDRPEHRELIRKAGSEGIVLLKNDRGILPIDVTKTKKVALLGPLAKYAAAHGGGSASLNCHYKVSPFDAFKDRLSEDVEIAHSKGAHIFRVYPDLEEGCLNARQRPGFLAEYFMTSRVTEEPFLVEQFPRGSFTTLMNTRATGCKTVRFTTTYSPVTPGAHYLSFSGLGPSKFYINDELVAHQTESTKDAMGFLLGVQEEIRTQFVFEVGKEYNIVVETHPSPTSNAELYLLDNQCSVHLGLISQEEMEQDVLAEAVSLAKDADLAIVFVGNTTQWETEGQDLESMSLPANGSQDDLIVRVAAANPNTIVVNTTGVPVELPWIDSVPAFLQAWYAGQETGNAILDVLLGTTCPSGKLPISWPKKYEHTGCFGNFGLDSFESRQVDYVEGVFVGYRWFDNLWGGEKEVRFPFGFGLSYTTFEITGTSIKGSLSNDAHHVLRVSIKVKNVGKCLGAEIVQVYLKPPVTEGLERPQKTLAGFEKIELRVGEEREVHIAIGKENAAFWDENLSKWRVSTGVYEVLVATSSHPRDCRAVLETVVEDEFIFKA

Assays:
Assay type in all cases: biochemical, Quillaja saponaria
[1] = Experiment 5-2: screening of additional glucosidases for deglycosylation with QS-18 in crude bark extract (80%) at pH 6 and 35 deg C; conditions: CBE 80%, pH 6, 35 deg C, 18 hours; UV HPLC
Procedure, shortened: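 Clarified glucosidase lysate (prepared at pH 6) was incubated with pH 6-adjusted crude bark extract at 35 deg C with shaking for 18 hours. Reactions were quenched with MeCN containing 2% AcOH and hexanophenone, then analysed by UV HPLC.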

[2] = Experiment 5-3: screening of additional glucosidases for deglycosylation with QS-18 in treated bark extract (80%) at pH 6 and 35 deg C; conditions: TBE 80% (QS-21 approx. 4 g/L), pH 6, 35 deg C; UV HPLC
Description: Experiment 5-1 was repeated, replacing CBE with Treated Bark Extract (TBE) at pH 6. TBE was prepared from CBE by PVPP treatment and concentration, to provide TBE with a QS-21 concentration of approximately 4 g/L. TBE was adjusted to pH 6 by dropwise addition of 2M NaOH with stirring.

[3] = Experiment 5-1: screening of additional glucosidases for deglycosylation with purified QS-18 (0.04 mg/ml) at pH 7.5 and 30 deg C; conditions: pH 7.5, 30 degrees C, 18 hours, LCMS/MS
Description: The 94 additional genes, together with positive control (DNA encoding SEQ ID No. 262) and negative control, were transformed, expressed, lysed and reacted in the same manner as described above for Experiment 4-1, except the reaction was incubated at 30 degrees C. for 18 hours.
Samples were analysed by LCMS/MS according to the procedure in Experiment 4-1.

| Molecule | Experiment 5-2 % conv [1] [%] | Experiment 5-3 % conv [2] [%] | Experiment 5-1 % conv [3] [%] |
| --- | --- | --- | --- |
| B1 | <0.5 | <0.5 | 3.5 |
| B2 | <0.5 | <0.5 | 3.2 |
| B3 | <0.5 | <0.5 | 3.7 |
| B4 | <0.5 | <0.5 | 3.8 |
| B5 | <0.5 | <0.5 | 3.5 |
| B6 | <0.5 | <0.5 | 3.1 |
